The supplement of paper PMC12455559

Experiment: purified protein yield per well (BCA); higher = higher soluble expression
Outline: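 Purified protein yield per well is reported, as measured by the Pierce Rapid Gold BCA kit. The enzymes came from E. coli C41(DE3) autoinduction cultures of 2 mL with 100 µg/mL kanamycin, held at 37 °C for 2 h and 18 °C for 40 h, then lysed and purified on Ni-charged magnetic beads with SUMO protease release. The detection threshold is 25 ug (0.1 mg/mL), and lower values are under it.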

## RSAPDAAAPRAASGNPYQRGPDPTVASIEATRGPFATAQLNVAPGNGFNGGVVSYPTDTSLGTWGALAIVPGYSALCADEEAWMGPWLSSFGFVVICVETNTRTDSADARAAELLAALNWLTTQSPVKGQIDPGRLSVLGHSAGGAGAILAAERQPSLKAMIGLAPGFPGNGLSMATDTVPTLVIGGQNDTVVTPSYLSGLYATLPGTTQSGFAQIAGADHVYYTRPNNVEMKLLIPWLKLFVDSDTRYSPFLCPALPDPSAVSIYQPKCPYTPPGGSTPPPSTSSGPPMSPAGGRPVHAVGAGKCLDVPGLSATAGTQTDIRTCDGGAGQLWTRASAGRLTVQTGGSTMCLDAAGRGASPGTKVQIWPCNGGSNQQWNVNANGTITGTQSGLCLDVTGGSTADGALVELWTCNGGSNQQWTSQ [TEP076]
  purified protein yield per well: < 25 µg

## RSGPYQVAYYTQLPPVPEFGAATLYFPANKGQDFSGVVIAPGYIEQQENISWWGNHLASHGFAVLTIDTNSLQDNPQLRAEALMAGVELLRGENTRMGGTLRGKFHEQQMAVMGHSMGGGGALLAANNSGGELKAAIPLTPWLPDGDFGAVAVPTLLISGETDRIAAVADHARLHYQSLPEELTKMYLEIKGGNHFIANSIVENEGLNPNIDVRDLVGGMA [TEP023]
  purified protein yield per well: < 25 µg

## SAAGNNIGHRQGGDTFASATVIEALPFSDSGTTSGFNNDYGPYSNQSSYNICQWQGYYDNTNTGAGPDVVYSLALSEEKTVKISLCGSDYDTGLGVFDGSGVQVLGNDDACSLQSEVVCALPEGLYYIVVDGYSTSSGNYVLNVSIEEDLFGPYSVGTITEDDGLRDGPDYCCGIVYYPTDAVGYLPAIVYIPGYAGTISSNENWGPYLASHGIVTMFVNANFSLASNETRAEALLDGLVTIQDENQRPGSPLYGNLNLNQLAVAGHSRGGGAALLAAAAEPSVNAVLALAPWLEDQFINSTTLDQDVPVLFLSGQLDESAPNDVHTNLFYAYTPETTDKLLYEISGGDHFIVKDPSNNSAMAMKALYWLEKYLTNDPTHC [TEP001]
  purified protein yield per well: < 25 µg

## SAPVHHRAATHTSAAAHHHAPFAVRTTVVPRTAVTKFGGGVIYAPLDTGKPVLGAVVITPGFTDTNANEKEMAELVASQGFVAFAIDTLTTDDLPDLRAAQMLAAADYLTGQSAVRSEVSQDDVGLIGYSFGGGGTMQAAQSRPSIKAAIGLMPFDFPPATDPNAMYPSYPKMTTPTLVITGQKDDVADPKDFGKPAYDSIPAGTPKQYLELAGIGHEGGQHVPSATIRNAVTAFLKRYLDGNSAYAKFICPAPKVGGPISASLSSCPKG [ESM131]
  purified protein yield per well: < 25 µg

## SASASAPAASRVQAAASGNTYQRGPDPTLSSVAASTGPFATAQVSVPAGYGFKGGMIYYPTDTSLGTWGAVAIVPGYTALFANEEAWMGPWLASFGFVVIGVETNSTTDYDTQRGTELLAALNYLTTQSPVRDRVDPTRLGVIGHSMGGGGVVYATEHQPSLKGAVALAPFSPSQSMATDTVPTMVMGGQNDTVVTPSYLAGLYATLPASTQSDFIQIAGADHIYYTHPNPVEMRILIPWLKTFLDEDTRYTQFLCPTLADPSGVSMYQSKCPYVPGGGSTPPPPAGGALHAVGAGKCVDVPNSTTTSGTQVQIYSCNGQANQAFTHNSAGELAVTDAGVTDCLDANGKGTTNGTKVIIYPCNGQPNQQWTINSNGTITGVQSGLCLDVTGASTANGALVELWTCNGGSNQKWTLS [TEP058]
  purified protein yield per well: < 25 µg

## SGGSSPDGPRESRQDGPSSAGPSYPSAGPLEGPYEVRTQTVGPDDVGGRFRGGTVYYPADGSRDYGVIAASPGLGADQSMVQAYGALLASHGFVLITFDTKTPQDSPAQRGRQMLDALDWAAEHSAAAGRADPDRLGVMGHSMGGGAALHAASRDPRIKAAVPLTPYAGKRDWSGVTAATLVVSGSDDEVAPPSGHARAFYDGLDDAKEKAYLELKGDHFVATPPDRLVSRQTVAWFKHFVGGDKAAGEDLCPAPREERVVASRDTCPYG [TEP134]
  purified protein yield per well: < 25 µg

## SNPAPEPSPTPSPSPSQPSNPFQRGPNPTVASVESAGPFAVRTSRVSSAVSGFGGGTIYYPSGTTGTMAAIVVIPGYVSSQSSIEWWGPRLASNGFVVMTIDTNATTDQPPARARQINAALDYLIAQNRASGSPVNGMIDTSRLGVVGWSMGGGGTLRVASEGRIKAAIPLAPWDTTTFRNVKAPTLIFACESDTIAPVRNHASPFYNQVPTSIPKAFVQLNRGNHYCANGGNAFNADLSRLGVSWMKRFLDNDRRFSQFLCGPN [ESM016]
  purified protein yield per well: < 25 µg

## SPPIVRYDYAPGKYSGNGPYSYSTYQLPGWSPGATVYYPTNASPPFSGIVFCPPYTGTQSNFAAWGPFFASHGIVLVTMDTSSTLISVDQRAIEQRMVLDLLKAERNRPGSPLYNKIDPERVGAMGWSMGGGASWINSAEYPGLKTAMSLAGHHLTAINPNAKGYGTQCPTIIFCGLLDQTILGGMLQSETVYYNIPSGIPKVFYEVSTAGHFVWYSPTAANSHVAELALAFQKTFLDGDTRWEQYIEEPLFD [TEP034]
  purified protein yield per well: < 25 µg

## SPVLALVAGPALANPYQRGPDPTDASITAETGPFKTASVVVPSNTDPGFAGGTIYYPTDTSQGTFAPIVVTPGFVSPQWAISWYGPRLASQGFVVMTIDTLGLFDVVDQRGKEMLAALDYLTNRSAVKDRIDPTRPGLMGHSMGGGGVIRAAAERPGIKAVVPLAPWDPNSSYAWNVKADTLVVGGESDMIAPVAANAEPIYKDLRSAPEKAYLELSGADHVFAFNLPNTTIAKYAIAWMKRFLDDDVRYDRFLCPAPAPGGAIKQYQDTCPNG [TEP158]
  purified protein yield per well: < 25 µg

## SQGTFGAAVVSPGFLSPQVAWAGPRIASHGFVVLTIDTNTIFDSPTSRSQQLQAALSYLVSPASGVANRIDPSRLAAMGHSMGGGGTLELAARLPTLQAAVPLQPWDIAQSFSGIRVPTMIIGAQADFIAPVASHSEPFYQQVPATTEKAYLEVAGADHLIGLLGNPTQARYSVAWLKRYVDDDTRYDQFICPPPSGPTISEYRNTCPP [TEP153]
  purified protein yield per well: < 25 µg

## SSVNCDSLAQIALLNPGPYSVSSLDESDNIRNGPDYAGAHIYYPTNASGSLSSIVLVPGFMNFESTLQNWGPFLAAHGIVTMTIGANYLTDSPTHRKEALLDAIVTLKAEQTRIGSPLYYSLNINNFAVGGFSMGGGGAQLAAVSDPTIKAIIALNPYLSNASEADFNHNCPVLITSGELDFIANPNLHANVHYAVTPDSTPKQLYEIQNAGHDPLIGPNGGYGEVGMKVLSWLQAFLNDNHCYCPPILTVPTTASSFTHNIVCEDLFIQGCTDSTACNYNPNATIDDGSCETQSCACPGDLNGDYAITVADVLLTLSEFGCMTNCTADIDGDGFVNVTDILELLSMFGTVC [TEP145]
  purified protein yield per well: < 25 µg

## STPAHHAAARTAAHHHAPFAVRATVVPKTAVKAFGGGVIYTPQDTGKAVLGAVVITPGFTDTSADEKEMAELVASQGFVAFAIDTLDTGDLPDQRATEILAAADYLTGQSAVRSEVSAKDVGLIGYSFGGGGTMQAAQARPSIKAAIGLMPYDFPPADQPDAQYPAYPKLTTPTLVITGQKDDLAVPAEFGKPAYDSIPAGTPKQYLELKGLGHAAGEHVPVATIRTAVTAFLKRYLDGNSAYAKYICPAPKVGGPISASTSSCPKG [TEP196]
  purified protein yield per well: < 25 µg

## STPVHHAAARTAVPHHAPFAVRTTVVPKTAVKAFGGGVIYTPQDTGKPVLGAVVITPGFTDTNADEKATAELVASQGFVAFAIDTLDVYDLPDQRATEMLAAADYLTGTSAVKSEVSANDVALLGYSFGGGGTMQAAQSRPSIKAAVTLMPYDFPPADQPDAQYPAYPKLTVPTLVITGQKDDVAVPADFGKPAYDSIPAGTPKQYLELKGLDHYAGHRAPTPTIRTAVTAFLKRYLDGNSAYAKFICPAPKVGGPITASISSCPKG [ESM164]
  purified protein yield per well: < 25 µg

## STPVHHAAASYTSTAAHHHAPFAVRTTVVPKTAVTTFGGGVIYTPQDTGKPVLGAVVITPGFTDTNANEKEMAELVASQGFVAFAIDTLTTDDLPDLRATQMLAAADYLTGQSAVRSQVSKDDVGLIGYSFGGGGAMQAAQSRPSIKAAIGLMPFDFPPATDPDAMYPAYPHMTTPTLVITGQKDDVADPKDFGKPAYDSIPAGTPKQYLELTGLGHAAGQHVPVATIRTAVTAFLKRYLDGNSAYAKYICPAPKVGGPISASLSSCPKG [TEP069]
  purified protein yield per well: 25.8 µg

## TPEAPAARAAENPYERGPDPTESSIEAPRGSYSVSERSVSSLSVRGFGGGTIYYPTSTADGTFGAVAISPGFTARQSSMAWYGERLASQGFVVFTIDTNTTMDQPASRGDQLLAALDYLTDDSAVRSRIDSNRLAVMGHSMGGGGSLEAAKDRPSLKAAIPLTPWNTDKSWPEVRVPTFIVGADGDSIASVRSHAEPFYESLPSSTDRAYMELRNATHFAPNSADTEIAKYSISWLKRFVDEDTRYEQFLCPIPSSDLQIAEFRGNCPH [TEP075]
  purified protein yield per well: < 25 µg

## TQSGPYQVKRYREKDGLRNGPRYRGATVYYPTDARGLLASIVIVPGYISPERSIRAWGPFYASHGIVAMTIGTNRPQDAPAARRRALLDAITSLKLENHRANSPLKGRLAVTRIAVSGWSMGGGGALEAATRAPQLKAVVALCPWNPYQTFSHRVPVLFLAGQRDRLAPVSDNALRHYEKTPASTPKLLFEVRNEGHWVANTPQGGNGAIGRLALS [TEP155]
  purified protein yield per well: < 25 µg

## VANPYQRGPAPTEASVTAKLGPFAIASKKVGAFSHPGIREGTVYYPTDTSQGTFGAIAVAPGFVSPEALVSWYGPRLASQGFVVMTLEITTGFDLPEARAAQLLSALDFMKKDNTIKNRIDPNRLAVMGWSMGGGGTLRAAQQSASLKAAIPLAPWDLGMDWSNVRVPTMIIGGDNDFVASPGFHAEPFYTQLADEKAYLELENAGHFTFTSDNNTIAKYAISWMKRWVDEDTRYTQFLCPPPPAPSPTIQKYRQTCPY [DP046]
  purified protein yield per well: < 25 µg

## VASPYQRGPDPTVASIEASRGPFAIAQTTIAASSVRGFRGGTVYYPTSTAEGTFGAVAISPGYTATQSSVAWLGPRLASQGFVVVTIDTLSRYDQPASRGTQLLAALDHLTTASSVRTRIDRNRLAVMGHSMGGGGSLSAANTRPTLQAAIPLTGWHTVKNWSGVRVPTLVVGAENDSIAPVTSHSEPFYTSLPSTLDKAYLELNAAGHSAPTSSNVTVAKYSISWLKRFVDDDTRYEQFLCPAPRGTAIQEYRDTCPHS [DP083]
  purified protein yield per well: < 25 µg

## VEIGPAPTSTLLNGDGPFAVSTDSVSSLVTGFGGGTIYYPTTSGQYAAVAVCPGFTGTSSSISWFARRLATHGFVTIAMNTNTIYDYPSSRATQLAAALRYLLNSSSSTIRARIRTADRAVAGHSMGGGGTLIASANDSTLRAGIPLTPWNTYTSFSSVRVPQMIFGADGDTIAPYASHARPFYNSLSYPEKAYALLNGATHFTPNSTDQRIGRYGVAFAKRFVDGDTRYTPFLCGAEHTAYATSSRFDTYLSTCPY [TEP032]
  purified protein yield per well: < 25 µg

## VEIGPAPTSTSLNSDGSFAVSSASVSSSACGSGCAGGTVYYPNTAGSYGVIAVCPGFTNTSSAISWFARRMATHGFVTIAMNTNSRYDFPASRATQLRAVLNYLVNSSSSTIRSRIRSADRGVSGYSMGGGGTLLASRDDSTLKTGVPMAPYNSGTISGVNVPQMIIGGSNDSIAPVSSMARPFYNNIPSTVKKALAVLNGASHLTFTSYDERAARYGVAFAKRFADGDTRYTPFLCGAEHTAYATSSRFTEYSSNCPY [ESM020]
  purified protein yield per well: < 25 µg
